Positions count from the first letter of the chain named.
B1: 227 (protein)
chain: MGHHHHHHGGSVSDVPRDLEVVAATPTSLLISWEYKVHPYRYYRITYGETGGNSPVQEFTVPSVLSTATISGLKPGVDYTITVYAVTYGDDSAPISINYRKEAEL
modifications: Adnectin
B2: 125 (protein)
chain: MGHHHHHHGGVSDVPRDLEVVAATPTSLLISWEYKVHPYRYYRITYGETGGNSPVQEFTVPSVLSTATISGLKPGVDYTITVYAVTYGVQSDPISINYRTPGG
modifications: Adnectin
B3: 127 (protein)
chain: B2 chain with E33Q, T66S, T68Q, V89I, Q90E, D92S
modifications: Adnectin
B4: 213 (protein)
chain: MGHHHHHHGGSVSDVPRDLEVVAATPTSLLISWEYKVHPYRYYRITYGETGGNSPVQEFTVPSVLSTATISGLKPGVDYTITVYAVTYGDDSWPISINYRTEID
modifications: Adnectin
B5: 254 (protein)
chain: B4 chain with H38D, P39S, W93A
modifications: Adnectin
B6: 250 (protein)
chain: B4 chain with T67S, T69K, W93A
modifications: Adnectin
B7: 221 (protein)
chain: B4 chain with H38Y, P39G, W93A
modifications: Adnectin
B8: 223 (protein)
chain: B4 chain with H38D, P39Y, Y40R, W93A
modifications: Adnectin
B9: 246 (protein)
chain: B4 chain with H38N, P39Y, Y40N, Y88E, D90V, D91Q, W93A
modifications: Adnectin
B10: 219 (protein)
chain: B4 chain with E34K, W93A
modifications: Adnectin
B11: 249 (protein)
chain: B4 chain with T67S, I70L, S71N, W93A
modifications: Adnectin
B12: 255 (protein)
chain: B4 chain with W93A
modifications: Adnectin
B13: 218 (protein)
chain: B4 chain with S71R, W93A
modifications: Adnectin
B14: 260 (protein)
chain: B4 chain with T60R, W93A
modifications: Adnectin
B15: 257 (protein)
chain: B4 chain with Y88N, W93A
modifications: Adnectin
B16: 253 (protein)
chain: B4 chain with H38D, P39A, W93A
modifications: Adnectin
B17: 228 (protein)
chain: B4 chain with H38N, P39H, Y40Q, W93A
modifications: Adnectin
B18: 256 (protein)
chain: B4 chain with D91A, W93A
modifications: Adnectin
B19: 215 (protein)
chain: B4 chain with E34K, K36D, W93A
modifications: Adnectin
B20: 251 (protein)
chain: B4 chain with T60N, W93A
modifications: Adnectin
B21: 252 (protein)
chain: B4 chain with H38A, P39H, Y40R, W93A
modifications: Adnectin
B22: 222 (protein)
chain: B4 chain with H38D, P39H, Y40Q, W93A
modifications: Adnectin
B23: 245 (protein)
chain: B4 chain with E34K, K36Q, P39A, S71N, D90I, D91I, W93E
modifications: Adnectin
B24: 224 (protein)
chain: B4 chain with H38A, P39Y, Y40D, W93A
modifications: Adnectin
B25: 259 (protein)
chain: B4 chain with T69K, W93A
modifications: Adnectin
B26: 258 (protein)
chain: B4 chain with T67S, S71R, W93A
modifications: Adnectin
B27: 214 (protein)
chain: B4 chain with Y88H, W93A
modifications: Adnectin
B28: 217 (protein)
chain: B4 chain with Y88R, W93A
modifications: Adnectin
B29: 229 (protein)
chain: B4 chain with H38D, P39H, Y40R, W93A
modifications: Adnectin
B30: 248 (protein)
chain: B4 chain with S54T, T60R, G89A, D91A, W93A
modifications: Adnectin
B31: 225 (protein)
chain: B4 chain with H38T, P39S, W93A
modifications: Adnectin
B32: 216 (protein)
chain: B4 chain with G72D, W93H
modifications: Adnectin
B33: 220 (protein)
chain: B4 chain with G9C, H38A, P39H, Y40N, W93A
modifications: Adnectin
B34: 124 (protein)
chain: MGVSDVPRDLEVVAATPTSLLISWEYKVHPYRYYRITYGETGGNSPVQEFTVPSVLSTAEISGLKPGVDYTITVYAVTRGVDSAPISINYRTPIDKPSQHHHHHH
modifications: Adnectin
B35: 231 (protein)
chain: B34 chain with E60T, R79Y, D82N, A84I, P93E
modifications: Adnectin
B36: 235 (protein)
chain: B34 chain with P30Y, Y31D, E60T, R79N, D82L, A84S, P93E
modifications: Adnectin
B37: 240 (protein)
chain: B34 chain with H29S, E60T, R79Y, D82N, A84I, P93E
modifications: Adnectin
B38: 233 (protein)
chain: B34 chain with E60T, R79D, D82Q, A84S, P93E
modifications: Adnectin
B39: 238 (protein)
chain: B34 chain with H29N, Y31W, E60T, R79Y, V81I, D82Q, A84P, P93E
modifications: Adnectin
B40: 234 (protein)
chain: B34 chain with H29N, P30A, E60T, R79Y, V81I, A84S, P93E
modifications: Adnectin
B41: 244 (protein)
chain: B34 chain with H29D, E60T, R79Y, A84D, P93E
modifications: Adnectin
B42: 126 (protein)
chain: B34 chain with E60T, R79Y, V81I, D82Q, A84P, P93E
modifications: Adnectin
B43: 241 (protein)
chain: B34 chain with H29N, Y31W, E60T, R79Y, D82N, A84L, P93E
modifications: Adnectin
B44: 243 (protein)
chain: B34 chain with H29N, Y31W, E60T, R79Y, A84D, P93E
modifications: Adnectin
B45: 236 (protein)
chain: B34 chain with H29N, Y31W, E60T, P93E
modifications: Adnectin
B46: 239 (protein)
chain: B34 chain with E25Q, Y33W, E60T, R79Y, D82N, A84I, P93E
modifications: Adnectin
B47: 232 (protein)
chain: B34 chain with H29N, P30A, E60T, R79Y, V81I, D82E, A84S, P93E
modifications: Adnectin
B48: 226 (protein)
chain: MGHHHHHHGGSVSDVPRDLEVVAATPTSLLISWEYKVHPYRYYRIIHETGGNSPVQEFTVPSVLSTATISGLKPGVDYTITVYAVTYGDDSAPISINYRTEID
modifications: Adnectin
B49: 230 (protein)
chain: MGVSDVPRDLEVVAATPTSLLISWEYKVHPYRYYRITYGETGGNSPVQEFTVPSVLSTATISGLKPGVDYTITVYAVTYGVDSDPISINYRTDDKPSQHHHHHH
modifications: Adnectin

These molecules were tested on NL-Rluc virus (assay: Combinectin potency assay: antiviral EC50, NL-Rluc virus in MT-2 cells, luciferase readout). Details: Anti-N17 Adnectin, Table 3.
Assay type: cell-based, HIV-1
In short: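 MT-2 cells infected with replication-competent NL-Rluc HIV (nef replaced by Renilla luciferase) at MOI 0.01 for 1 h, then added to threefold-diluted peptides (11 concentrations, triplicate). After 4–5 days, luciferase measured by Dual Luciferase; EC50 relative to no-peptide wells.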

Molecule	EC50 [nM]
B1	> 1000
B2	4340
B3	9
B4	> 1000
B5	> 1000
B6	218
B7	> 1000
B8	> 1000
B9	> 1000
B10	> 1000
B11	83
B12	136
B13	62
B14	188
B15	> 1000
B16	> 1000
B17	> 1000
B18	170
B19	> 1000
B20	186
B21	> 1000
B22	> 1000
B23	50
B24	> 1000
B25	135

Molecule	EC50 [nM]
B26	195
B27	> 1000
B28	> 1000
B29	> 1000
B30	> 1000
B31	> 1000
B32	> 1000
B33	86
B34	6
B35	10
B36	29
B37	5
B38	55
B39	11
B40	20
B41	58
B42	8
B43	8
B44	48
B45	85
B46	4
B47	47
B48	631
B49	17

From patent US11155602B2, “Polypeptides targeting HIV fusion” (priority 2015, dated 2021)
